Data from article PMC8106667 (Molecular cell, 2021).

What was measured:
Assay in all cases: pull-down
[1] = target: T1, MBP-ORC1-230-400 A-A (Cy motif mutant) (human, UniProt Q13415 230-400, K235A | L237A)
T1 sequence (looked up): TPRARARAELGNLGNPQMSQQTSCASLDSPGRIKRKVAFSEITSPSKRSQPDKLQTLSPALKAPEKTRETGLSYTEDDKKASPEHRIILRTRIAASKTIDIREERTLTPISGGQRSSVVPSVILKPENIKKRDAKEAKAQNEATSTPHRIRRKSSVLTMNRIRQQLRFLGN

[2] = target: T2, MBP-ORC1-230-400 wild type (human, UniProt Q13415 230-400)
T2 sequence (looked up): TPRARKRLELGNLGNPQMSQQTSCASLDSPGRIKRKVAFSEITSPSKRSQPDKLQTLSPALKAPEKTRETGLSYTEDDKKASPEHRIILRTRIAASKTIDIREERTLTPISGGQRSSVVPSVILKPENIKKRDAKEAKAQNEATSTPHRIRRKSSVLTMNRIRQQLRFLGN

[3] = target: T3, GST-CDC6 wild type, full length (human, UniProt Q99741 1-560)
T3 sequence (looked up): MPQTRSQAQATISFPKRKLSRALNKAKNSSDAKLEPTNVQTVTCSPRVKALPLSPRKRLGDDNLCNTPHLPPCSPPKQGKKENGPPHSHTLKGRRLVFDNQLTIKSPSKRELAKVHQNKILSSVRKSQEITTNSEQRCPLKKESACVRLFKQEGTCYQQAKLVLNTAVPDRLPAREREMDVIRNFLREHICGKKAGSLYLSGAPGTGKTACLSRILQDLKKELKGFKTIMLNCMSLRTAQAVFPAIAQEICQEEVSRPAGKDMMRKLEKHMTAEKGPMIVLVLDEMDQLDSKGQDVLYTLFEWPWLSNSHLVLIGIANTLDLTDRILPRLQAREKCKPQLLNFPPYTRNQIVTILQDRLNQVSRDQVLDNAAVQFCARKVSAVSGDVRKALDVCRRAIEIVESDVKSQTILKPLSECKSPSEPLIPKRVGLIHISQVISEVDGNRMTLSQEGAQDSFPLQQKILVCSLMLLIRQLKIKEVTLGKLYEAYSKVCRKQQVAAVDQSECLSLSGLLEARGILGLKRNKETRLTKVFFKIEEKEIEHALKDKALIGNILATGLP

Measured: binding result

B1: ORC1-180-240-HIS6 wild type (domain or fragment, human, UniProt Q13415 180-240, looked up)
chain: QESAAKCQKPVRAKSKSAESPSWTPAEHVAKRIESRHSASKSRQTPTHPLTPRARKRLELG
binds: [1] | [2] | [3]
